Values quoted from earlier work as cited in article PMC5838028.

Target: glypican-3 (Homo sapiens) (UniProt P51654)
Sequence (P51654 359-554): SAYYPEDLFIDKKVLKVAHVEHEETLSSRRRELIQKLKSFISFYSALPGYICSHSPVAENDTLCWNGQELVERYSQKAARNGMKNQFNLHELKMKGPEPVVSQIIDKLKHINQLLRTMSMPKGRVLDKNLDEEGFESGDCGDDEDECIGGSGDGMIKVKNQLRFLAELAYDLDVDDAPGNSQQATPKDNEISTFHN

Substance: codrituzumab
- Kd: 0.673 nM
